Data published in the MegaScale stability set (Tsuboyama et al. 2023).

B1: 1ZHC (parent)
chain: HEFRDEISVLKANNPHFDKIFEKHNQLDDDIKTAEQQNASDAEVSHMKKQKLKLKDEIHSMIIEYREK

Variants of: B1
Assay: folding stability dG (cDNA display proteolysis); higher = more stable
Conditions: PBS, room temperature

| Variant | folding stability dG [kcal/mol] |
| --- | --- |
| A34W | 0.215 |
| D56R | 1.21 |
| D56A | 1.27 |
| D56Y | 1.5 |
| D56W | 1.39 |
| D56C | 1.36 |
| D56I | 1.25 |
| D29S | 1.2 |
| D29I | 1.44 |
| D29M | 1.5 |
| D29N | 1.49 |
| D29W | 1.26 |
| D29H | 1.51 |
| D29Q | 1.5 |
| D29C | 1.17 |
| D29A | 1.44 |
| D29G | 0.771 |
| E2K | 0.746 |
| E2Y | 1 |
| E2S | 0.328 |
| E2G | 0.827 |
| E2V | 1.2 |
| E2A | 1.29 |
| E2L | 1.08 |

| Variant | folding stability dG [kcal/mol] |
| --- | --- |
| E2D | 0.711 |
| E2I | 0.998 |
| M61H | 0.422 |
| M61C | -0.322 |
| H1W | 1.34 |
| H1G | 0.836 |
| H1V | 0.768 |
| H1Y | 0.73 |
| H1A | 0.874 |
| Y65L | 0.386 |
| Y65E | -0.672 |
| Y65V | -0.888 |
| Y65N | -0.975 |
| Y65M | 0.384 |
| Y65S | -0.451 |
| Y65A | 0.205 |
| Y65F | 1.01 |
| F21Y | 0.959 |
| F21T | -0.186 |
| F21S | 0.151 |
| F21V | 0.263 |
| I7R | -0.653 |
| I7K | -0.95 |
| I7A | -0.185 |

| Variant | folding stability dG [kcal/mol] |
| --- | --- |
| I7E | -0.7 |
| K68I | 0.298 |
| K68C | 0.745 |
| K68F | 0.363 |
| K68N | 0.792 |
| K68G | 0.495 |
| K68Y | 0.578 |
| K68E | -0.339 |
| V9T | 0.509 |
| V9L | 1.23 |
| V9N | 0.901 |
| V9C | 1.91 |
| V9F | 2.05 |
| V9S | 0.824 |
| H16N | -0.56 |
| H16T | 0.264 |
| H16M | -0.101 |
| H16W | 1.1 |
| H16S | -0.066 |
| H16V | 0.505 |
| K51Y | 1.5 |
| K51V | 0.721 |
| K51M | 1.52 |
| K51F | 1.65 |

| Variant | folding stability dG [kcal/mol] |
| --- | --- |
| K51R | 1.29 |
| K51I | 1.3 |
| R4S | 1.05 |
| R4G | 0.834 |
| R4V | 0.547 |
| R4P | 0.834 |
| R4Q | 1.08 |
| R4W | 1.49 |
| D18V | 1.68 |
| D18A | 2.29 |
| D18E | 1.35 |
| Q37W | 0.426 |
| Q37Y | 0.718 |
| Q37C | 0.94 |
| Q37D | 0.411 |
| Q37E | 0.422 |
| Q37M | 0.926 |
| Q37A | 1.07 |
| F17R | -0.98 |
| F17G | -0.943 |
| K48Q | 0.238 |
| K48C | 0.421 |
| K48E | -0.818 |
| K48F | 0.266 |

| Variant | folding stability dG [kcal/mol] |
| --- | --- |
| K48I | 0.568 |
| N13Y | 0.635 |
| N13H | 0.775 |
| N13M | 1.33 |
| I62V | 0.282 |
| I62H | -0.624 |
| I62F | 0.011 |
| K23I | 0.915 |
| K23F | -0.019 |
| K23V | 0.152 |
| K23H | 0.386 |
| K23L | 1.55 |
| K23C | 0.886 |
| D5V | 0.719 |
| D5Y | 1.53 |
| D5G | 0.455 |
| D5S | 0.508 |
| D5R | 0.858 |
| E6N | 0.08 |
| E6V | 1.5 |
| E6W | 1.55 |
| E6P | 0.04 |
| E6Q | -0.376 |
| E6M | 1.46 |

| Variant | folding stability dG [kcal/mol] |
| --- | --- |
| E6K | -0.498 |
| N14S | 0.54 |
| N14L | -0.009 |
| N14E | -0.24 |
| N14D | 0.835 |
| S8Q | 1.11 |
| S8P | -0.067 |
| S8F | 1 |
| S8V | 0.784 |
| S8Y | 0.782 |
| S8W | 1 |
| S8D | 0.953 |
| S8T | 1.08 |
| E35F | 0.495 |
| E35R | 0.348 |
| E35W | 0.403 |
| E35G | -0.433 |
| E35K | 0.972 |
| Q36Y | 0.632 |
| Q36L | 1.02 |
| Q36C | 0.694 |
| Q36T | 0.782 |
| Q36V | 0.511 |
| Q36N | 0.652 |

| Variant | folding stability dG [kcal/mol] |
| --- | --- |
| S40A | 0.255 |
| S40L | 0.393 |
| S40R | 0.251 |
| S40I | -0.234 |
| S40V | -0.512 |
| S40T | -0.074 |
| E64F | 0.527 |
| E64W | 0.701 |
| E64I | 0.119 |
| E64N | 0.583 |
| E64C | 0.731 |
| E64V | -0.038 |
| E64R | 0.669 |
| M47I | -0.393 |
| M47W | 0.576 |
| L27V | 0.331 |
| L27M | 0.198 |
| I63F | 0.401 |
| I63K | 0.899 |
| I63W | -0.039 |
| I63R | 0.974 |
| I63N | 0.622 |
| I63Y | 0.129 |
